In IntAct's records for PubMed 15744307:

B1: Short transient receptor potential channel 3 (Homo sapiens), Q13507 (parent)
chain: MSTKVRKCKEQARVTFPAPEEEEDEGEDEGAEPQRRRRGWRGVNGGLEPRSAPSQREPHGYCPPPFSHGPDLSMEGSPSLRRMTVMREKGRRQAVRGPAFMFNDRGTSLTAEEERFLDAAEYGNIPVVRKMLEESKTLNVNCVDYMGQNALQLAVGNEHLEVTELLLKKENLARIGDALLLAISKGYVRIVEAILNHPGFAASKRLTLSPCEQELQDDDFYAYDEDGTRFSPDITPIILAAHCQKYEVVHMLLMKGARIERPHDYFCKCGDCMEKQRHDSFSHSRSRINAYKGLASPAYLSLSSEDPVLTALELSNELAKLANIEKEFKNDYRKLSMQCKDFVVGVLDLCRDSEEVEAILNGDLESAEPLEVHRHKASLSRVKLAIKYEVKKFVAHPNCQQQLLTIWYENLSGLREQTIAIKCLVVLVVALGLPFLAIGYWIAPCSRLGKILRSPFMKFVAHAASFIIFLGLLVFNASDRFEGITTLPNITVTDYPKQIFRVKTTQFTWTEMLIMVWVLGMMWSECKELWLEGPREYILQLWNVLDFGMLSIFIAAFTARFLAFLQATKAQQYVDSYVQESDLSEVTLPPEIQYFTYARDKWLPSDPQIISEGLYAIAVVLSFSRIAYILPANESFGPLQISLGRTVKDIFKFMVLFIMVFFAFMIGMFILYSYYLGAKVNAAFTTVEESFKTLFWSIFGLSEVTSVVLKYDHKFIENIGYVLYGIYNVTMVVVLLNMLIAMINSSYQEIEDDSDVEWKFARSKLWLSYFDDGKTLPPPFSLVPSPKSFVYFIMRIVNFPKCRRRRLQKDIEMGMGNSKSRLNLFTQSNSRVFESHSFNSILNQPTRYQQIMKRLIKRYVLKAQVDKENDEVNEGELKEIKQDISSLRYELLEDKSQATEELAILIHKLSEKLNPSMLRCE
partner: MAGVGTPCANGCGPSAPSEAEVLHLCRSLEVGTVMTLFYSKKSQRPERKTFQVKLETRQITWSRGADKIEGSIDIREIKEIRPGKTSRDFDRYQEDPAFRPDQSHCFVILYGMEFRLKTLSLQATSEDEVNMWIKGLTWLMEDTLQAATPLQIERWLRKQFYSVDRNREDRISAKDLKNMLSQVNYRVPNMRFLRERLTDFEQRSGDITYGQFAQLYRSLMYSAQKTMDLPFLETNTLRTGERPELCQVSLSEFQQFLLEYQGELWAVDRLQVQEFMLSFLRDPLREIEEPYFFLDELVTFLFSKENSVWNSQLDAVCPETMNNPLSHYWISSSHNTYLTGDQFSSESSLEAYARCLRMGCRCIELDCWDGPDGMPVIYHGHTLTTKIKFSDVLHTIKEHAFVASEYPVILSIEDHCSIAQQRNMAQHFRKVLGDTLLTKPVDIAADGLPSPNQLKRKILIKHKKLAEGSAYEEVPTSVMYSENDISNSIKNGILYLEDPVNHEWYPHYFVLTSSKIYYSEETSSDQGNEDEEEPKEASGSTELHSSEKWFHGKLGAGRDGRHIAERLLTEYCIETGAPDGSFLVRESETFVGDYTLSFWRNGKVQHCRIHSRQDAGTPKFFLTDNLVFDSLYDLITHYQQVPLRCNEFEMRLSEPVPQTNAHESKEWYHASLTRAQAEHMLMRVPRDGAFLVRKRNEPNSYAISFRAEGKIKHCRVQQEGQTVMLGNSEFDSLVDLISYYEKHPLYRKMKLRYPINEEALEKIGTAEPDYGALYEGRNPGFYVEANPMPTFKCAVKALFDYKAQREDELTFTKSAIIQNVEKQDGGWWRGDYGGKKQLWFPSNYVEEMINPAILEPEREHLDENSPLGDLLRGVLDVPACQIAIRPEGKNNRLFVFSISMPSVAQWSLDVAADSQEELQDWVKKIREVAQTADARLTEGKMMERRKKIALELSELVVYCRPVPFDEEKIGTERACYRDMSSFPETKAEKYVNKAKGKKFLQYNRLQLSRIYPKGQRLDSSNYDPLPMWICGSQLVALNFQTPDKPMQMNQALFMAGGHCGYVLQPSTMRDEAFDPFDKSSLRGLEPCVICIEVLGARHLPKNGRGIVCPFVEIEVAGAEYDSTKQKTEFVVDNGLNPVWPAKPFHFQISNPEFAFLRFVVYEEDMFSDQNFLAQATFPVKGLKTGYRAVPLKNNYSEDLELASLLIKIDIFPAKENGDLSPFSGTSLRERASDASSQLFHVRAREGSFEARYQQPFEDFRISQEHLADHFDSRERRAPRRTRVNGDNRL

Variants of: B1
Settings: with plcg1_rat Plcg1, P10686

effect of a mutation on the interaction | Variant
decreasing interaction | F116A
decreasing interaction | E113A
decreasing interaction | L117A
